The text below walks through data of PMC4286236.

Assay in all cases: AraTM assay
Assay [1] concerns the target Danio rerio PlxnA3 TM + JM (amino acids 1241-1314) D1302Y, AraTM construct (EP-PCR mutant). As to conditions: E. coli membranes; four replicates; read off a plot.
Assay [2] concerns the target Danio rerio PlxnA3 TM + JM (amino acids 1241-1314) L1274A, AraTM construct. As to conditions: E. coli membranes; minimum of eleven replicates over three experiments; read off a plot.
Assay [3] has as its target Danio rerio PlxnA3 TM + JM (amino acids 1241-1314) L1277F, AraTM construct. The conditions noted are these: E. coli membranes; minimum of eleven replicates over three experiments; read off a plot.
Assay [4] deals with Danio rerio PlxnA3 TM + JM (amino acids 1241-1314) L1284A, AraTM construct. As to conditions: E. coli membranes; minimum of eleven replicates over three experiments; read off a plot.
The target in assay [5] is Danio rerio PlxnA3 TM + JM (amino acids 1241-1314) M1281F, AraTM construct. As to conditions: E. coli membranes; minimum of eleven replicates over three experiments; read off a plot.
The target in assay [6] is Danio rerio PlxnA3 TM + JM (amino acids 1241-1314) M1281L, AraTM construct. As to conditions: E. coli membranes; minimum of eleven replicates over three experiments; read off a plot.
In assay [7] the target is Danio rerio PlxnA3 TM + JM (amino acids 1241-1314) M1281T, AraTM construct. The conditions noted are these: E. coli membranes; minimum of eleven replicates over three experiments; read off a plot.
Assay [8] has as its target Danio rerio PlxnA3 TM + JM (amino acids 1241-1314) V1288F, AraTM construct (EP-PCR mutant). The conditions noted are these: E. coli membranes; four replicates; read off a plot.

In the case of “Danio rerio PlxnA3 TM + JM (amino acids 1241-1314), wild type, AraTM construct D1302Y”, the other: % change in AraTM fluorescence/absorbance from WT (% change from WT) in assay [1] stood at 85. Regarding “Danio rerio PlxnA3 TM + JM (amino acids 1241-1314), wild type, AraTM construct L1274A”, the other: % change in AraTM fluorescence/absorbance from WT (% change from WT) in assay [2] was -1. Consider “Danio rerio PlxnA3 TM + JM (amino acids 1241-1314), wild type, AraTM construct L1277F”, for which the other: % change in AraTM fluorescence/absorbance from WT (% change from WT) in assay [3] is -2.3. “Danio rerio PlxnA3 TM + JM (amino acids 1241-1314), wild type, AraTM construct L1284A”: the other: % change in AraTM fluorescence/absorbance from WT (% change from WT) in assay [4] is -7.6.

With “Danio rerio PlxnA3 TM + JM (amino acids 1241-1314), wild type, AraTM construct M1281F”, in assay [5], the other: % change in AraTM fluorescence/absorbance from WT (% change from WT) was -7.2.

For “Danio rerio PlxnA3 TM + JM (amino acids 1241-1314), wild type, AraTM construct M1281L”, the other: % change in AraTM fluorescence/absorbance from WT (% change from WT) in assay [6] came out at 23. Consider “Danio rerio PlxnA3 TM + JM (amino acids 1241-1314), wild type, AraTM construct M1281T”, for which, in assay [7], the other: % change in AraTM fluorescence/absorbance from WT (% change from WT) was -12. For “Danio rerio PlxnA3 TM + JM (amino acids 1241-1314), wild type, AraTM construct V1288F”, in assay [8], the other: % change in AraTM fluorescence/absorbance from WT (% change from WT) was 25.
